From the Human Domainome abundance scans (Beltran et al. 2025)
± gives the uncertainty stated by the source.

B1: Formin-binding protein 4, residues 200 to 261; numbered along this chain, Q8N3X1 (parent)
chain: SGWQYDTQCSLAGVGIEMGDWQEVWDENTGCYYYWNTQTNEVTWELPQYLATQVQGLQHYQP

Variants of: B1
Experiment: abundance fitness (aPCA) (normalised: wild type 0, dead -1); higher = more abundant; growth selection in yeast, the domain comes from the species named
Conditions: Homo sapiens

Abundance fitness: each site, then its substitutions
G19: C -0.918 ± 0.19, P -0.897 ± 0.14, E -0.4 ± 0.09, S -0.454 ± 0.094, M -0.525 ± 0.12, I -0.769 ± 0.19, N -0.676 ± 0.42, W -0.992 ± 0.17, H -0.642 ± 0.34, A -0.091 ± 0.068, R -0.722 ± 0.075, T -0.782 ± 0.14, F -0.794 ± 0.19, D -0.362 ± 0.12, Y -0.96 ± 0.28
I16: K -0.542 ± 0.15, E -0.507 ± 0.092, M 0.08 ± 0.088, P -0.735 ± 0.13, D -0.742 ± 0.32, V 0.027 ± 0.058, H -0.8 ± 0.41, A -0.332 ± 0.082, N -0.676 ± 0.33, Q -0.621 ± 0.12, R -0.713 ± 0.068, L -0.137 ± 0.064, S -0.574 ± 0.094, Y -0.334 ± 0.27, T -0.506 ± 0.11, C -0.373 ± 0.12, G -0.763 ± 0.088, W -0.671 ± 0.092, F -0.195 ± 0.19
V14: L -0.071 ± 0.053, T -0.084 ± 0.091, S -0.163 ± 0.075, Q 0.071 ± 0.084, E -0.03 ± 0.087, K 0.116 ± 0.068, P -0.698 ± 0.11, G 0.091 ± 0.071, D -0.273 ± 0.24, W 0.055 ± 0.081, N -0.067 ± 0.16, C -0.043 ± 0.17, A -0.06 ± 0.07, H -0.09 ± 0.18, Y 0.365 ± 0.13, R -0.01 ± 0.064, M -0.028 ± 0.082
T29: S 0.123 ± 0.074, H -0.017 ± 0.16, Q -0.125 ± 0.093, W -0.362 ± 0.075, F -0.074 ± 0.19, G -0.147 ± 0.056, R 0.117 ± 0.054, I -0.382 ± 0.14, L -0.036 ± 0.067, C -0.066 ± 0.13, K 0.311 ± 0.073, P -0.172 ± 0.11, A 0.162 ± 0.065, Y 0.019 ± 0.15, N -0.086 ± 0.16, M -0.1 ± 0.11
A12: G 0.089 ± 0.077, Q -0.131 ± 0.094, F -0.465 ± 0.13, N -0.331 ± 0.13, Y -0.025 ± 0.11, H -0.217 ± 0.12, L -0.272 ± 0.057, E -0.267 ± 0.12, I -0.363 ± 0.12, C -0.185 ± 0.1, M -0.587 ± 0.11, D -0.226 ± 0.14, V -0.041 ± 0.06, P -0.448 ± 0.11, T -0.389 ± 0.084, K -0.146 ± 0.11, S -0.068 ± 0.06
D26: L -0.5 ± 0.072, I -0.593 ± 0.13, S -0.007 ± 0.061, F -0.296 ± 0.12, K -0.345 ± 0.12, C -0.228 ± 0.095, V -0.384 ± 0.067, Y -0.322 ± 0.12, P -1.14 ± 0.19, R -0.515 ± 0.078, W -0.256 ± 0.092, E -0.148 ± 0.077, T -0.178 ± 0.093, Q -0.181 ± 0.097, N -0.084 ± 0.12, A -0.176 ± 0.066, M -0.09 ± 0.088, G -0.373 ± 0.068
M18: S -0.586 ± 0.099, H -0.432 ± 0.16, T -0.132 ± 0.098, F -0.278 ± 0.12, W 0.025 ± 0.084, G -0.545 ± 0.079, P -0.264 ± 0.098, I -0.247 ± 0.16, E -0.534 ± 0.13, C -0.549 ± 0.18, Q -0.69 ± 0.13, R -0.643 ± 0.092, N -0.869 ± 0.22, K -0.618 ± 0.12, A -0.685 ± 0.099, L -0.313 ± 0.065, Y -0.53 ± 0.21
Q22: D -0.371 ± 0.16, M -0.217 ± 0.1, A -0.121 ± 0.086, P -0.905 ± 0.14, T -0.137 ± 0.09, H -0.641 ± 0.21, R 0.006 ± 0.072, E 0.042 ± 0.19, W -0.61 ± 0.15, L -0.315 ± 0.072, G -0.234 ± 0.15, F -0.423 ± 0.13, N -0.023 ± 0.17, V 0.063 ± 0.077, Y -0.586 ± 0.26, S -0.136 ± 0.072, C -0.459 ± 0.13
L11: E -0.483 ± 0.097, F -0.714 ± 0.14, H -0.559 ± 0.12, N -0.79 ± 0.17, P -0.636 ± 0.12, V -0.192 ± 0.059, C -0.429 ± 0.1, I -0.061 ± 0.093, Y -0.57 ± 0.12, G -0.678 ± 0.084, M -0.625 ± 0.12, D -0.429 ± 0.12, K -0.469 ± 0.14, A -0.731 ± 0.088, W -0.381 ± 0.11
N28: D -0.002 ± 0.11, P -0.133 ± 0.092, F -0.329 ± 0.11, L -0.233 ± 0.057, M -0.32 ± 0.088, K 0.108 ± 0.095, S -0.151 ± 0.07, G 0.073 ± 0.057, W -0.291 ± 0.069, H -0.229 ± 0.16, Y -0.245 ± 0.13, C -0.022 ± 0.096, V -0.507 ± 0.075, E -0.07 ± 0.077, I 0.281 ± 0.14, T -0.153 ± 0.095
